# B1: SDG8i (Sporobolus stapfianus) (protein)
# chain: MTKTVVLYPIRGAGHLTPMIQLARLFLQHGGFNVTVAIGSSPEDSDFSALVARAAAANPSVTFHILPQPSSTPDGSNTDVTPKHKHPVVHLFDTLGAMNAPLRDFLRSLPAVDALVVDMFCYDALDVAAELELPAYFLYASGAGDLAVFLNLPSARAGMTTSFAELGDTLLTLPGAPPFKASDLPADAINDNEVARCTRRMFERMPESHGILVNSFEALETRAVRALRDGLCVPDRATPPIYCIGPLVSGGGGEKEHECLRWLDAQPDNSVVFLCFGSMGTFSKKQLHDIAVGLEKSEQRFLWVVRSPRSDDHKFGEPRPELDLDAFLRDGFLERTKERGLVLKSWAPQVDVLHHRATGAFVTHCGWNSTLEGIMAGIPLLCWPLYAEQRMNKVFIVDELKLGVEMRGYNQEVVKAEEVESKVRWVLESEAGQAIRERVLAMKDKAAEALKEGGPSHVEFVKFLKDLEAVGRP
# notes: unpurified leaf protein extract; no tag stated
# Substrate: [H][C@]12Cc3ccccc3[C@@]1([H])OC(=O)/C2=C/O[C@@H]1C=C(C)C(=O)O1
# Assay: coupled enzyme assay (NADH oxidation), Lineweaver-Burk plot
# Type: biochemical, Sporobolus stapfianus
# Conditions: pH 7.4, leaf protein extract 25 µg, background without substrate subtracted, vector-only control extract
protein,measurement,value
B1,Km,349 µM
